# What was measured:
# [1] = test system: PCV2 proteins in PK-15 cells; experiment: Expression kinetics of PCV2 proteins (capsid, REP) in PK-15 cells, immunofluorescence; assay type: cell-based, Porcine circovirus 2
# Protocol: To determine the timing and localisation of PCV2 proteins expression (Capsid protein and REP), PK-15 cells were seeded on glass cover slips and inoculated with PCV2. After inoculation, culture medium was added with or without 500 U/ml IFN-gamma. At 0, 12, 24, 36, 48 and 72 hpi the cells were fixed in methanol at −20° C. Afterwards, a triple immunofluorescence staining was performed to visualize both viral proteins and the cell nucleus. PCV2 capsid protein was detected using purified biotinylated porcine polyclonal anti-PCV2 immunoglobulins which only react with PCV2 capsid proteins. Bound porcine immunoglobulins were visualized with streptavidin conjugated Texas Red (molecular probes, Leiden, The Netherlands). In a second step, the REP protein was detected with a specific mouse monoclonal antibody (F210) visualized with goat-anti-mouse FITC (molecular probes, Leiden, The Netherlands). In a final step, the nuclei of the cells were visualized with Hoechst 33342 (Molecular Probes, Oreg., USA) at a concentration of 0.1 mg/ml. The number of cells with capsid and/or REP protein was counted and the localisation of viral antigens was monitored by fluorescence microscopy.
# [2] = test system: PCV2 (field strain Imp-1121); experiment: PCV2 replication in inoculated pigs given IFN-gamma or ConA; assay type: in vivo; conditions: pigs inoculated at 19 days of age; samples 10, 15, 21 days post inoculation
# Protocol: Pigs are inoculated with PCV2 (field strain Imp-1121) at 19 days of age. These inoculated pigs are divided in 3 groups. One group contains control pigs (only PCV2). The second group of pigs receives recombinant IFN-gamma (100,000 U per pig every three days). The third group contains pigs that receive ConA (1.5 mg/kg every three days). At different times post inoculation (10, 15, 21 days) samples are collected and the replication of the virus is assessed.
# [3] = test system: PCV2-infected PK-15 cells; experiment: Number of PCV2-infected PK-15 cells (IPMA) after treatment with cytokines or natural cytokine sources; assay type: cell-based, Porcine circovirus 2; conditions: for increase in PCV2-positive cells / lowest concentration inducing a significant effect on PCV2-positive cells: PK-15
# Protocol: PK-15 cells were seeded and maintained in culture medium containing 5%-10% fetal bovine serum (FBS), 0.3 mg/ml glutamine, 100 U/ml penicillin, 0.1 mg/ml streptomycin, 0.1 mg/ml kanamycin dissolved in minimal essential medium (MEM) (Gibco BRL®, Grand Island, USA) or dissolved in RPMI-1640 (GIBCO BRL®, Grand Island, USA) containing 1% nonessential amino acids (100×; GIBCO BRL®, Grand Island, USA) and 1 mM sodium pyruvate (GIBCO BRL®, Grand Island, USA). Cells were seeded at a concentration of 150,000 cells per ml of medium. For the detection of total viral antigen positive cells, the cells were seeded in 96-well microtiter plates (Nunc) (15,000-20,000 cells per well). To detect the expression of specific viral antigens, cells were seeded on sterile cover slips in Leighton tubes (150,000 cells per tube) and finally progeny virus production assays were performed in 24-well plates containing […].
# (§1) In order to use cells, more related to the target cells in vivo, the monocytic cell line 3D4/31 was used to confirm the effect of the different cytokines on the number of PCV2-infected cells. The 3D4/31 cell line is a porcine monomyeloid cell lines that was established following transfection of primary porcine alveolar macrophage cultures with plasmid pSV3neo, carrying genes for neomycin resistance and SV40 large T antigen. (Weingartl et al. (2002) J Virol Methods. 10, 203-216). These cells were maintained in a 1:1 mixture of RPMI-1640 (Invitrogen) and DMEM (Invitrogen) supplemented with 10% fetal bovine serum, 0.3 mg/ml glutamine, 100 U/ml penicillin, 0.1 mg/ml streptomycin, 0.1 mg/ml kanamycin and 1% non-essential amino acids 100× (GIBCO BRL®, Grand Island, USA). These experiments were also performed in 96-well plates containing the same number of cells. Furthermore, to monitor the effect of IFN-gamma on the entry of PCV2 virion-like particles was determined, 3D4/31 cells were seeded at 2×10^5 cells/ml of medium onto microscopic slides mounted with an 8 well cell culture silicone chamber (Vivascience AG, Hanover). In all inoculations, the same PCV2-strain (Stoon-1010) was used at a multiplicity of infection of 0.01. The virus was diluted in MEM and inoculated on the cell cultures by incubating cells and virus for 1 hour at 37° C. After 1 hour, the inoculum was removed, the cultures were washed twice with MEM and new culture medium was added.
# (§2) The influence of the cytokines on the infection of PCV2 in PK-15 and 3D4/31 cells was determined by adding two-fold-dilution series of the cytokines to the medium of the cells before, during or after the inoculation. IL-1, IL-6, […] and IFN-alpha were used in concentrations ranging from 0.25-250 Units/ml (U/ml), IFN-gamma was used in concentrations ranging from 0.25-1000 U/ml and IL-10 was used in concentrations from 0.13-125 U/ml. Cell cultures were either pre-treated with the cytokines for 24 hours before inoculation, treated during the inoculation or the cytokines were added in the medium after the inoculation. After 36 hours of incubation at 37° C. in an environment supplemented with 5% CO2, the cells were fixed by drying and frozen at −20° C. The plates were stained with an immuno-peroxydase monolayer assay (IPMA) as described by Sanchez et al. (2003, Vet Microbiol 95, 15-25) and the number of PCV2-positive cells was counted by light microscopy. In each plate a control was inoculated with an equal dose of mock-treated PCV2 (treated with MEM without cytokines). The number of infected cells in this well was used as the reference and all results were expressed as a ratio to this reference.
# Two-fold dilutions of the BAL-fluids of the PRCV and mock-inoculated pigs were added to the medium of PCV2-inoculated PK-15 cells after inoculation. Concentrations of the added BAL-fluids ranged from 1.25 to 5%. Supernatants of ConA and mock-stimulated PBMC's were also added to the culture medium of PK-15 cells after inoculation in concentrations ranging from […] to 50%. […]
# [4] = test system: EMC virus; conditions: porcine PK-15 cells infected with EMC virus; supplier leaflet, typical; cited from earlier work
# [5] = test system: PCV2-infected 3D4/31 cells; experiment: Number of PCV2-infected 3D4/31 cells (IPMA) after cytokine treatment; assay type: cell-based, Porcine circovirus 2; conditions: for increase in PCV2-positive cells: 3D4/31
# Text: as §1, §2
# [6] = treated (500 U/ml) and non-treated PK-15 cells
molecule,measurement,setting,value
"IFN-gamma: Porcine interferon gamma purchased from R&D systems (protein, UniProt P17803 24-166, looked up) Interferon gamma: QAPFFKEITILKDYFNASTSDVPNGGPLFLEILKNWKEESDKKIIQSQIVSFYFKFFEIFKDNQAIQRSMDVIKQDMFQRFLNGSSGKLNDFEKLIKIPVDNLQIQRKAISELIKVMNDLSPRSNLRKRKRSQTMFQGQRASK",influence on sequence of events of PCV2 protein expression (in words),"[1]; PK-15, 500 U/ml after inoculation",did not influence
same,first nuclear localisation of both proteins,[1]; both cultures,24 hpi
same,first detection of REP protein,[1]; [6],24 hpi
same,first detection of capsid protein,[1]; [6],12 hpi
same,replication of PCV2 compared to control pigs (in words),[2],increase in the replication of PCV2
same,increase in PCV2-positive cells,[3]; 1000 U/ml added after inoculation,791±105%
same,increase in PCV2-positive cells,[3]; 1000 U/ml added before inoculation,518±134%
same,increase in PCV2-positive cells,[3]; 1000 U/ml added during inoculation,270±57%
same,lowest concentration inducing a significant effect on PCV2-positive cells,[3]; administered after inoculation,2 U/ml
same,lowest concentration inducing a significant effect on PCV2-positive cells,[3]; administered before inoculation,16 U/ml
same,lowest concentration inducing a significant effect on PCV2-positive cells,[3]; administered during inoculation,2 U/ml
same,change in the number of PCV2-positive cells (in words),"[3]; PK-15 cells, cytokine dilution series, before, during or after inoculation, 36 h",dose-dependent increase
same,ED50 for anti-viral effect,[4],0.015 to 0.045 ng/mL
same,increase in PCV2-positive cells,[5]; treated after inoculation,523±115%
same,increase in PCV2-positive cells,[5]; treated before inoculation,806±88%
same,increase in PCV2-positive cells,[5]; treated during inoculation,214±16%
same,change in the number of PCV2-positive cells (in words),"[5]; 3D4/31 cells, any concentration, before, during or after inoculation",dose-dependent increase
